# Target: NADP+-specific glutamate dehydrogenase from Aspergillus terreus (Aspergillus terreus)
# Assay: crystal structure
substance,measurement,value
NADP+-specific glutamate dehydrogenase from Aspergillus terreus (enzyme),stoichiometry N,6

# — paper doi:10.1101/2021.09.28.462122
